Earlier results in paper PMC12493190.

What was measured:
[1] = biological target: phospho-ubiquitin (Homo sapiens) (UniProt P0CG47)
[2] = biological target: parkin pUbl Ubl (Homo sapiens) (UniProt O60260)
parkin pUbl Ubl (Homo sapiens), sequence (O60260 1-76): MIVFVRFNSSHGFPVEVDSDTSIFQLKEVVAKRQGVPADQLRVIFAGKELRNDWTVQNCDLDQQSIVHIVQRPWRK

parkin RING0, sequence (O60260 141-225): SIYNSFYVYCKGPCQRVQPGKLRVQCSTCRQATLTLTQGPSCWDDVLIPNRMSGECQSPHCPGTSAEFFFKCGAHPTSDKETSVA

Kd [1]: 400 nM
Kd [2]: 1000 nM
Substance: parkin RING0 (from UniProt O60260)
